Experimental data reported in paper PMC10715591, “EspB and HtpG interact with the type III-A CRISPR/Cas system of Mycobacterium tuberculosis” (Frontiers in Molecular Biosciences, 2023).

Target: T1, MtbHtpG (high-temperature protein G) (Mycobacterium tuberculosis H37Rv, UniProt P9WMJ7 1-647)
T1 construct: also called Chaperone htpG
T1 sequence: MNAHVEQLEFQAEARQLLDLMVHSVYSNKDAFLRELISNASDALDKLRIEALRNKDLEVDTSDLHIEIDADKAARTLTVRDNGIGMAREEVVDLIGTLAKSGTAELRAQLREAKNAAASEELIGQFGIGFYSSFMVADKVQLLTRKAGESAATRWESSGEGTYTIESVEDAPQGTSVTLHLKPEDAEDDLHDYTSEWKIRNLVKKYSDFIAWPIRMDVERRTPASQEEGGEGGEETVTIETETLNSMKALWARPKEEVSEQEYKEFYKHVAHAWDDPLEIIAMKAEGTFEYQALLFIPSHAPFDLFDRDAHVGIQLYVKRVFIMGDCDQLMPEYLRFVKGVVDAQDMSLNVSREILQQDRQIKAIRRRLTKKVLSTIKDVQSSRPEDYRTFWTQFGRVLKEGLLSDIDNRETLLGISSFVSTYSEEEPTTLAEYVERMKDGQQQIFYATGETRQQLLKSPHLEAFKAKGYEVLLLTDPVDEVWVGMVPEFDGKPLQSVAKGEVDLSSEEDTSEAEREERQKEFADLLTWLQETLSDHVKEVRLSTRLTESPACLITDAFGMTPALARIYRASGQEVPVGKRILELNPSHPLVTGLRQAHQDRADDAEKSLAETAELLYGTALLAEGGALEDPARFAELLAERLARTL
Test: SPR
Settings: both partners purified

B1: MtbCsm3 (natural protein)
chain: MTTSYAKIEITGTLTVLTGLQIGAGDGFSAIGAVDKPVVRDPLSRLPMIPGTSLKGKVRTLLSRQYGADTETFYRKPNEDHAHIRRLFGDTEEYMTGRLVFRDTKLTNKDDLEARGAKTLTEVKFENAINRVTAKANLRQMERVIPGSEFAFSLVYEVSFGTPGEEQKASLPSSDEIIEDFNAIARGLKLLELDYLGGSGTRGYGQVKFSNLKARAAVGALDGSLLEKLNHELAAV
  Kd: 59.4 nM
  koff: 0.000914 s⁻¹
  kon: 15400 M⁻¹ s⁻¹
